B1: Recombinant immunotoxin VH ver 1 + VL ver 4 (H1L4 by the HmLn naming of paragraph 88) (other)
VL: MDIQMTQSPSTLSASVGDRVTITCRASQDISNYLNWFQQRPGQSPRLLIYYTSILHSGVPSRFSGSGSGTDYTLTISSLQPEDFATYYCQQGNTLPWTFGCGTKVEIK
chain: MEVQLVESGGGLVKPGGSLRLSCAASGFAFSIYDMSWVRQAPGKCLEWVAYISSGGGTTYYPDSVKGRFTISRENAKNSLYLQMNSLKSEDTAMYYCARHSGYGTHWGVLFAYWGQGTMVTVSSKASGGPEGGSLAALTAHQACHLPLETFTRHRQPRGWEQLEQCGYPVQRLVALYLAARLSWNQVDQVIRNALASPGSGGDLGEAIREQPEQARLALTLAAAESERFVRQGTGNDEAGAANGPADSGDALLERNYPTGAEFLGDGGDVSFSTRGTQNWTVERLLQAHRQLEERGYVFVGYHGTFLEAAQSIVFGGVRARSQDLDAIWRGFYIAGDPALAYGYAQDQEPDARGRIRNGALLRVYVPRSSLPGFYRTSLTLAAPEAAGEVERLIGHPLPLRLDAITGPEEEGGRLETILGWPLAERTVVIPSAIPTDPRNVGGDLDPSSIPDKEQAISALPDYASQPGKPPREDLK
notes: dsFv-PE38 heterodimer
B2: Recombinant immunotoxin VH ver 2 + HA22 VL (other)
VL: MDIQMTQTTSSLSASLGDRVTISCRASQDISNYLNWYQQKPDGTVKLLIYYTSILHSGVPSRFSGSGSGTDYSLTISNLEQEDFATYFCQQGNTLPWTFGCGTKLEIK
chain: B1 chain with A41T, G43E
notes: dsFv-PE38 heterodimer
B3: HA22 (moxetumomab pasudotox; HA22 VH-PE38 + HA22 VL), made in-house (other)
VL: B2 VL
chain: B1 chain with R20K, A41T, G43E, S64T, E74D, S79T, N85S, M119L, S124A
notes: also called CAT-8015; HA22 VH / HA22 VL
B4: Recombinant immunotoxin VH ver 5 + VL ver 4 (H5L4 by the HmLn naming of paragraph 88) (other)
VL: B1 VL
chain: B1 chain with V38I, D63G, K88R, M94V
notes: dsFv-PE38 heterodimer
B5: Recombinant immunotoxin VH ver 4 + VL ver 4 (H4L4 by the HmLn naming of paragraph 88) (other)
VL: B1 VL
chain: B1 chain with V38I, D63G, K88R, S89A, E90G, M94V
notes: dsFv-PE38 heterodimer; The fusion entry is used here
B6: H1L2 humanized anti-CD22 recombinant immunotoxin (VH ver 1 + VL ver 2) (other)
VL: B1 VL with P9T, F37Y, G42D, Q43G, P45V, R46K, P81D, Y88F
chain: B1 chain
notes: dsFv-PE38 heterodimer, VH and VL linked by a disulfide bond
B7: H2L2 humanized anti-CD22 recombinant immunotoxin (VH ver 2 + VL ver 2) (other)
VL: B1 VL with P9T, F37Y, G42D, Q43G, P45V, R46K, P81D, Y88F
chain: B1 chain with A41T, G43E
notes: dsFv-PE38 heterodimer
B8: Recombinant immunotoxin VH ver 1 + VL ver 3 (H1L3 by the HmLn naming of paragraph 88) (other)
VL: B1 VL with L47R
chain: B1 chain

Numbering of substitutions follows the chain as printed.

The target in the first experiment is T1, recombinant human Siglec-2/CD22 Fc chimera protein (R&D systems, Cat #1968-SL) (human, UniProt P20273 20-687).
T1 construct: Bought reagent, immobilized antigen in the ELISA; Fc part of the bought chimera not given
The experiment can be described thus: ELISA, immobilized human CD22 Fc chimera. On the technique in general: In an ELISA, binding on a coated surface is turned into a signal by an enzyme label.
As for B1, the EC50 was found to be 0.2 nM.

Turning to B2, the EC50 turned out to be 0.64 nM.

Regarding B3, the EC50 came to 0.47 nM.

Take B4: the EC50 came to 2.15 nM.

For B5, the EC50 came out at 6.73 nM.

For the molecule B6, the EC50 was determined as 0.54 nM.

B7: the EC50 is 0.56 nM.

The target of a further experiment is biotinylated CD22 (UniProt P20273 20-687, limits assumed, biotinylated (site not stated)). The experiment can be described thus: Octet (BLI), biotinylated CD22 on streptavidin biosensors. For orientation: In BLI a coated tip is dipped into the sample, and binding shifts an interference pattern.
As to B3, the Kd was 4.08 to 5.81 nM.

As for B6, the Kd was 4.66 to 7.21 nM.

In the case of B7, the Kd is 5.01 to 7.02 nM.

The target of the next experiment is T1, recombinant human Siglec-2/CD22 Fc …. The experiment can be described thus: ELISA, immobilized human CD22 Fc chimera, detection with anti-Pseudomonas exotoxin A antibody.
Consider B3, for which the EC50 amounted to 0.47 nM.

As for B6, the EC50 worked out at 0.54 nM.

For B7, the EC50 turned out to be 0.56 nM.

The target of another experiment is T2, CD22 on Daudi cells (Daudi cell line expressing a high level of CD22) (UniProt P20273 20-847, limits assumed). In words: cell-based or functional assay.
In the case of B1, the “In Vitro potency assay (EC50, normalized against HA22)” value was 4.12 fold of HA22.

Regarding B3, the “In Vitro potency assay (EC50, normalized against HA22)” value is 1 fold of HA22.

Turning to B4, the “In Vitro potency assay (EC50, normalized against HA22)” value was 10.7 fold of HA22.

On to B6, for which the “In Vitro potency assay (EC50, normalized against HA22)” value is 1.32 fold of HA22.

Turning to B7, the “In Vitro potency assay (EC50, normalized against HA22)” value was 1.23 fold of HA22.

In the case of B8, the “In Vitro potency assay (EC50, normalized against HA22)” value was 4.59 fold of HA22.

The next experiment concerns the target T2, CD22 on Daudi cells (Daudi cell line …). The experiment can be described thus: cell-based or functional assay. This is another data set of the same source.
For B1, the “In Vitro potency assay (pM): EC50 of Daudi cell death, CCK-8” value (shortened to “In Vitro potency assay (pM): EC50”) is 13.8 pM.

As for B3, the “In Vitro potency assay (pM): EC50” value amounted to 2.72 pM.

Consider B4, for which the “In Vitro potency assay (pM): EC50” value came to 34.9 pM.

For the molecule B6, the “In Vitro potency assay (pM): EC50” value worked out at 4.58 pM.

As to B7, the “In Vitro potency assay (pM): EC50” value amounted to 4.26 pM.

Consider B8, for which the “In Vitro potency assay (pM): EC50” value amounted to 57.2 pM.

Another experiment deals with T1, recombinant human Siglec-2/CD22 Fc …. The experiment can be described thus: ELISA, immobilized human CD22 Fc chimera. The source holds these as a separate data set.
Regarding B1, the “EC50, normalized against HA22” value was 1.17 fold of HA22.

In the case of B2, the “EC50, normalized against HA22” value is 0.89 fold of HA22.

B3: the “EC50, normalized against HA22” value was 1 fold of HA22.

Regarding B4, the “EC50, normalized against HA22” value was 12.5 fold of HA22.

Regarding B5, the “EC50, normalized against HA22” value is 39.1 fold of HA22.

Take B6: the “EC50, normalized against HA22” value was 0.81 fold of HA22.

Turning to B7, the “EC50, normalized against HA22” value was 1.1 fold of HA22.

For orientation: EC50 means the concentration at which the effect is half-maximal. For orientation: Kd means a measure of binding affinity in units of concentration.

Values taken from patent US20230372522A1 (KUNMING SINOWAY NATURAL PHARMACEUTICALS, published 2023).
